The source of these data is US20220298218A1 (ANTAG THERAPEUTICS, published 2022).

The labels stand for the following.
T1: human GIP receptor (human, UniProt P48546 22-466)
T1 sequence (looked up): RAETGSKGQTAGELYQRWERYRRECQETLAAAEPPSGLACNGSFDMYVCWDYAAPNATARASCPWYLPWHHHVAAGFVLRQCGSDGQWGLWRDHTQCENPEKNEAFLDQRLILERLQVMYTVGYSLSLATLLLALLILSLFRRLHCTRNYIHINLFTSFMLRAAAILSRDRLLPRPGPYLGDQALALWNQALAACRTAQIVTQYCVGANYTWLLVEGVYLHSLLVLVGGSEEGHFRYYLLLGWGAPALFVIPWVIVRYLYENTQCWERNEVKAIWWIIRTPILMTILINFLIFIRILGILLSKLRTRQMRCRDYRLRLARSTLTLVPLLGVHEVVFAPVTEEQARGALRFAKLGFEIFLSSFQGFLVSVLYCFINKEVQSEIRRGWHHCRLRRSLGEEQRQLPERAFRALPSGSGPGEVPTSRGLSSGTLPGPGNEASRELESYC

B1: AT592 (peptide)
peptide: EGTFISDYSIAMDKIK([AEEA-AEEA-γGlu-C18 diacid])QQDFVNWLLAGGPSSGAPPPS-OH
modifications: N-terminus assumed
SMILES: CC[C@H](C)[C@H](NC(=O)[C@H](CO)NC(=O)[C@H](Cc1ccc(O)cc1)NC(=O)[C@H](CC(=O)O)NC(=O)[C@H](CO)NC(=O)[C@@H](NC(=O)[C@H](Cc1ccccc1)NC(=O)[C@@H](NC(=O)CNC(=O)[C@@H](N)CCC(=O)O)[C@@H](C)O)[C@@H](C)CC)C(=O)N[C@@H](C)C(=O)N[C@@H](CCSC)C(=O)N[C@@H](CC(=O)O)C(=O)N[C@@H](CCCCN)C(=O)N[C@H](C(=O)N[C@@H](CCCCNC(=O)COCCOCCNC(=O)COCCOCCNC(=O)CC[C@H](NC(=O)CCCCCCCCCCCCCCCCC(=O)O)C(=O)O)C(=O)N[C@@H](CCC(N)=O)C(=O)N[C@@H](CCC(N)=O)C(=O)N[C@@H](CC(=O)O)C(=O)N[C@@H](Cc1ccccc1)C(=O)N[C@H](C(=O)N[C@@H](CC(N)=O)C(=O)N[C@@H](Cc1c[nH]c2ccccc12)C(=O)N[C@@H](CC(C)C)C(=O)N[C@@H](CC(C)C)C(=O)N[C@@H](C)C(=O)NCC(=O)NCC(=O)N1CCC[C@H]1C(=O)N[C@@H](CO)C(=O)N[C@@H](CO)C(=O)NCC(=O)N[C@@H](C)C(=O)N1CCC[C@H]1C(=O)N1CCC[C@H]1C(=O)N1CCC[C@H]1C(=O)N[C@@H](CO)C(=O)O)C(C)C)[C@@H](C)CC
B2: AT591 (peptide)
peptide: EGTFISDYSIAMDKIK([AEEA-AEEA-γGlu-C18 diacid])QQDFVNWLLAGGPSSGAPPPS-NH2
modifications: N-terminus assumed
SMILES: CC[C@H](C)[C@H](NC(=O)[C@H](CO)NC(=O)[C@H](Cc1ccc(O)cc1)NC(=O)[C@H](CC(=O)O)NC(=O)[C@H](CO)NC(=O)[C@@H](NC(=O)[C@H](Cc1ccccc1)NC(=O)[C@@H](NC(=O)CNC(=O)[C@@H](N)CCC(=O)O)[C@@H](C)O)[C@@H](C)CC)C(=O)N[C@@H](C)C(=O)N[C@@H](CCSC)C(=O)N[C@@H](CC(=O)O)C(=O)N[C@@H](CCCCN)C(=O)N[C@H](C(=O)N[C@@H](CCCCNC(=O)COCCOCCNC(=O)COCCOCCNC(=O)CC[C@H](NC(=O)CCCCCCCCCCCCCCCCC(=O)O)C(=O)O)C(=O)N[C@@H](CCC(N)=O)C(=O)N[C@@H](CCC(N)=O)C(=O)N[C@@H](CC(=O)O)C(=O)N[C@@H](Cc1ccccc1)C(=O)N[C@H](C(=O)N[C@@H](CC(N)=O)C(=O)N[C@@H](Cc1c[nH]c2ccccc12)C(=O)N[C@@H](CC(C)C)C(=O)N[C@@H](CC(C)C)C(=O)N[C@@H](C)C(=O)NCC(=O)NCC(=O)N1CCC[C@H]1C(=O)N[C@@H](CO)C(=O)N[C@@H](CO)C(=O)NCC(=O)N[C@@H](C)C(=O)N1CCC[C@H]1C(=O)N1CCC[C@H]1C(=O)N1CCC[C@H]1C(=O)N[C@@H](CO)C(N)=O)C(C)C)[C@@H](C)CC
B3: AT593 (peptide)
peptide: EGTFISDYSIAMDKIK([AEEA-AEEA-γGlu-C18 diacid])QQDFVNWLLAQPSSGAPPPS-NH2
modifications: N-terminus assumed
SMILES: CC[C@H](C)[C@H](NC(=O)[C@H](CO)NC(=O)[C@H](Cc1ccc(O)cc1)NC(=O)[C@H](CC(=O)O)NC(=O)[C@H](CO)NC(=O)[C@@H](NC(=O)[C@H](Cc1ccccc1)NC(=O)[C@@H](NC(=O)CNC(=O)[C@@H](N)CCC(=O)O)[C@@H](C)O)[C@@H](C)CC)C(=O)N[C@@H](C)C(=O)N[C@@H](CCSC)C(=O)N[C@@H](CC(=O)O)C(=O)N[C@@H](CCCCN)C(=O)N[C@H](C(=O)N[C@@H](CCCCNC(=O)COCCOCCNC(=O)COCCOCCNC(=O)CC[C@H](NC(=O)CCCCCCCCCCCCCCCCC(=O)O)C(=O)O)C(=O)N[C@@H](CCC(N)=O)C(=O)N[C@@H](CCC(N)=O)C(=O)N[C@@H](CC(=O)O)C(=O)N[C@@H](Cc1ccccc1)C(=O)N[C@H](C(=O)N[C@@H](CC(N)=O)C(=O)N[C@@H](Cc1c[nH]c2ccccc12)C(=O)N[C@@H](CC(C)C)C(=O)N[C@@H](CC(C)C)C(=O)N[C@@H](C)C(=O)N[C@@H](CCC(N)=O)C(=O)N1CCC[C@H]1C(=O)N[C@@H](CO)C(=O)N[C@@H](CO)C(=O)NCC(=O)N[C@@H](C)C(=O)N1CCC[C@H]1C(=O)N1CCC[C@H]1C(=O)N1CCC[C@H]1C(=O)N[C@@H](CO)C(N)=O)C(C)C)[C@@H](C)CC
B4: AT613 (peptide)
peptide: EGTFISEYSIAMEKIK(C16 diacid)QQEFVQWLLAQKPSSGAPPPS-OH
modifications: N-terminus assumed
SMILES: CC[C@H](C)[C@H](NC(=O)[C@H](CO)NC(=O)[C@H](Cc1ccc(O)cc1)NC(=O)[C@H](CCC(=O)O)NC(=O)[C@H](CO)NC(=O)[C@@H](NC(=O)[C@H](Cc1ccccc1)NC(=O)[C@@H](NC(=O)CNC(=O)[C@@H](N)CCC(=O)O)[C@@H](C)O)[C@@H](C)CC)C(=O)N[C@@H](C)C(=O)N[C@@H](CCSC)C(=O)N[C@@H](CCC(=O)O)C(=O)N[C@@H](CCCCN)C(=O)N[C@H](C(=O)N[C@@H](CCCCNC(=O)CCCCCCCCCCCCCCC(=O)O)C(=O)N[C@@H](CCC(N)=O)C(=O)N[C@@H](CCC(N)=O)C(=O)N[C@@H](CCC(=O)O)C(=O)N[C@@H](Cc1ccccc1)C(=O)N[C@H](C(=O)N[C@@H](CCC(N)=O)C(=O)N[C@@H](Cc1c[nH]c2ccccc12)C(=O)N[C@@H](CC(C)C)C(=O)N[C@@H](CC(C)C)C(=O)N[C@@H](C)C(=O)N[C@@H](CCC(N)=O)C(=O)N[C@@H](CCCCN)C(=O)N1CCC[C@H]1C(=O)N[C@@H](CO)C(=O)N[C@@H](CO)C(=O)NCC(=O)N[C@@H](C)C(=O)N1CCC[C@H]1C(=O)N1CCC[C@H]1C(=O)N1CCC[C@H]1C(=O)N[C@@H](CO)C(=O)O)C(C)C)[C@@H](C)CC
B5: AT594 (peptide)
peptide: EGTFISDYSIAMDKIHQK([AEEA-AEEA-γGlu-C18 diacid])DFVNWLLAQKPSSGAPPPS-NH2
modifications: N-terminus assumed
SMILES: CC[C@H](C)[C@H](NC(=O)[C@H](CO)NC(=O)[C@H](Cc1ccc(O)cc1)NC(=O)[C@H](CC(=O)O)NC(=O)[C@H](CO)NC(=O)[C@@H](NC(=O)[C@H](Cc1ccccc1)NC(=O)[C@@H](NC(=O)CNC(=O)[C@@H](N)CCC(=O)O)[C@@H](C)O)[C@@H](C)CC)C(=O)N[C@@H](C)C(=O)N[C@@H](CCSC)C(=O)N[C@@H](CC(=O)O)C(=O)N[C@@H](CCCCN)C(=O)N[C@H](C(=O)N[C@@H](Cc1c[nH]cn1)C(=O)N[C@@H](CCC(N)=O)C(=O)N[C@@H](CCCCNC(=O)COCCOCCNC(=O)COCCOCCNC(=O)CC[C@H](NC(=O)CCCCCCCCCCCCCCCCC(=O)O)C(=O)O)C(=O)N[C@@H](CC(=O)O)C(=O)N[C@@H](Cc1ccccc1)C(=O)N[C@H](C(=O)N[C@@H](CC(N)=O)C(=O)N[C@@H](Cc1c[nH]c2ccccc12)C(=O)N[C@@H](CC(C)C)C(=O)N[C@@H](CC(C)C)C(=O)N[C@@H](C)C(=O)N[C@@H](CCC(N)=O)C(=O)N[C@@H](CCCCN)C(=O)N1CCC[C@H]1C(=O)N[C@@H](CO)C(=O)N[C@@H](CO)C(=O)NCC(=O)N[C@@H](C)C(=O)N1CCC[C@H]1C(=O)N1CCC[C@H]1C(=O)N1CCC[C@H]1C(=O)N[C@@H](CO)C(N)=O)C(C)C)[C@@H](C)CC

*1 amine or outer side, *2 acyl side, *3 side chain or, on linkers, in order; H or OH if unused. Where no end group is shown, it is not given here. Side-chain parts run from the residue outwards. The star is where a group is joined. C18 diacid = O=C(O)CCCCCCCCCCCCCCCCC(=O)*; C16 diacid = O=C(O)CCCCCCCCCCCCCCC(=O)*; γGlu = O=C(O)[C@H](CCC(=O)[*:2])N[*:1]; PEG = not defined here; AEEA = NCCOCCOCC(=O)O

In the assay the target is T1, human GIP receptor. As to the kind of experiment: cell-based or functional assay.
For the molecule TFISDYK([PEG-PEG-γGlu-C18 diacid])IAMDKIHQQDFVNWLLAQKPSSGAPPPS-NH2 (reading uncertain; also: 2xPEG: PEG unit not given here) [AT597], the “cAMP agonism % Emax” value was found to be 0%, the “cAMP antagonism” value was 79.4 nM, the “cAMP antagonism % inhib” value is 81% and the “cAMP antagonism pIC50” value was determined as 7.1.

Take B1: the “cAMP agonism % Emax” value came to 0%, the “cAMP antagonism” value was found to be 6.31 nM, the “cAMP antagonism % inhib” value was 88% and the “cAMP antagonism pIC50” value turned out to be 8.2.

Regarding B2, the “cAMP agonism % Emax” value came out at 0%, the “cAMP antagonism” value is 21.5 nM, the “cAMP antagonism % inhib” value turned out to be 92% and the “cAMP antagonism pIC50” value turned out to be 7.7.

In the case of B3, the “cAMP agonism % Emax” value stood at 0%, the “cAMP antagonism” value was found to be 63.1 nM, the “cAMP antagonism % inhib” value stood at 86% and the “cAMP antagonism pIC50” value came to 7.2.

B4: the “cAMP agonism % Emax” value is 0%, the “cAMP antagonism” value was 1.47 nM, the “cAMP antagonism % inhib” value stood at 100% and the “cAMP antagonism pIC50” value amounted to 8.8.

For the molecule TFISDYK([PEG-PEG-γGlu-C18 diacid])IAMDKIHQQDFVNWLLAGGPSSGAPPPS (not fully specified (C-terminus); reading uncertain) [AT602], the “cAMP agonism % Emax” value worked out at 0%, the “cAMP antagonism” value is 35.5 nM, the “cAMP antagonism % inhib” value is 100% and the “cAMP antagonism pIC50” value amounted to 7.5.

On to B5, for which the “cAMP agonism % Emax” value is 0%, the “cAMP antagonism” value was determined as 79.4 nM, the “cAMP antagonism % inhib” value was found to be 80% and the “cAMP antagonism pIC50” value turned out to be 7.1.
